From paper PMC8810155, “The eptinezumab:CGRP complex structure – the role of conformational changes in binding stabilization” (Bioengineered, 2021)

Biological target: T1, α-CGRP (human) 37-mer peptide (calcitonin gene-related peptide) (Homo sapiens, UniProt P06881, C-terminal amide (amidated Phe119))
T1 construct: human alpha-CGRP, mature 37-residue hormone; mature residues 26-37 correspond to 108-119 of the pro-hormone, so mature 1-37 would be 83-119; Only residues 26-37 (mature numbering; 108-119 of the pro-hormone) are visible in the complex structure; source: bought: Bachem
T1 chain: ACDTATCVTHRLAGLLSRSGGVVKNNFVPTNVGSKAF
Experiment: crystal structure; CGRP mixed with the Fab, complex purified by SEC; crystals at 20°C in sitting drops, 26% PEG MME 550, 9.5 mM ZnSO4, 95 mM MES pH 6.5, 30 mM glycyl-glycyl-glycine; X-ray diffraction to 3.10 Å; 2 Fab and 2 CGRP per asymmetric unit
Details: both partners purified

binding result: binds
B1: eptinezumab antigen-binding fragment (Fab) (Fab, V domains shown)
VH: EVQLVESGGGLVQPGGSLRLSCAVSGIDLSGYYMNWVRQAPGKGLEWVGVIGINGATYYASWAKGRFTISRDNSKTTVYLQMNSLRAEDTAVYFCARGDIWGQGTLVTVSS
VL: QVLTQSPSSLSASVGDRVTINCQASQSVYHNTYLAWYQQKPGKVPKQLIYDASTLASGVPSRFSGSGSGTDFTLTISSLQPEDVATYYCLGSYDCTNGDCFVFGGGTKVEIK
notes: heavy-chain part of the papain Fab of eptinezumab (humanized IgG1); light chain of eptinezumab; CDR L3 holds a disulfide bond (Cys95, Cys100 are named); also called eptinezumab Fab; source: partial endoproteolysis of eptinezumab with immobilized papain; purified by Fc depletion followed by SEC
